The labels stand for the following.
B1: AP-1 complex subunit beta-1 (Homo sapiens), Q10567 (parent)
chain: MTDSKYFTTTKKGEIFELKAELNSDKKEKKKEAVKKVIASMTVGKDVSALFPDVVNCMQTDNLELKKLVYLYLMNYAKSQPDMAIMAVNTFVKDCEDPNPLIRALAVRTMGCIRVDKITEYLCEPLRKCLKDEDPYVRKTAAVCVAKLHDINAQLVEDQGFLDTLKDLISDSNPMVVANAVAALSEIAESHPSSNLLDLNPQSINKLLTALNECTEWGQIFILDCLANYMPKDDREAQSICERVTPRLSHANSAVVLSAVKVLMKFMEMLSKDLDYYGTLLKKLAPPLVTLLSAEPELQYVALRNINLIVQKRPEILKHEMKVFFVKYNDPIYVKLEKLDIMIRLASQANIAQVLAELKEYATEVDVDFVRKAVRAIGRCAIKVEQSAERCVSTLLDLIQTKVNYVVQEAIVVIKDIFRKYPNKYESVIATLCENLDSLDEPEARAAMIWIVGEYAERIDNADELLESFLEGFHDESTQVQLQLLTAIVKLFLKKPTETQELVQQVLSLATQDSDNPDLRDRGYIYWRLLSTDPVAAKEVVLAEKPLISEETDLIEPTLLDELICYIGTLASVYHKPPSAFVEGGRGVVHKSLPPRTASSESAESPETAPTGAPPGEQPDVIPAQGDLLGDLLNLDLGPPVSGPPLATSSVQMGAVDLLGGGLDSLMGDEPEGIGGTNFVAPPTAAVPANLGAPIGSGLSDLFDLTSGVGTLSGSYVAPKAVWLPAMKAKGLEISGTFTRQVGSISMDLQLTNKALQVMTDFAIQFNRNSFGLAPAAPLQVHAPLSPNQTVEISLPLSTVGSVMKMEPLNNLQVAVKNNIDVFYFSTLYPLHILFVEDGKMDRQMFLATWKDIPNENEAQFQIRDCPLNAEAASSKLQSSNIFTVAKRNVEGQDMLYQSLKLTNGIWVLAELRIQPGNPSCTDLELSLKCRAPEVSQHVYQAYETILKN
B2: AP-1 complex subunit gamma-1 (Mus musculus), P22892 (parent)
chain: MPAPIRLRELIRTIRTARTQAEEREMIQKECAAIRSSFREEDNTYRCRNVAKLLYMHMLGYPAHFGQLECLKLIASQKFTDKRIGYLGAMLLLDERQDVHLLMTNCIKNDLNHSTQFVQGLALCTLGCMGSSEMCRDLAGEVEKLLKTSNSYLRKKAALCAVHVIRKVPELMEMFLPATKNLLNEKNHGVLHTSVVLLTEMCERSPDMLAHFRKLVPQLVRILKNLIMSGYSPEHDVSGISDPFLQVRILRLLRILGRNDDDSSEAMNDILAQVATNTETSKNVGNAILYETVLTIMDIKSESGLRVLAINILGRFLLNNDKNIRYVALTSLLKTVQTDHNAVQRHRSTIVDCLKDLDVSIKRRAMELSFALVNGNNIRGMMKELLYFLDSCEPEFKADCASGIFLAAEKYAPSKRWHIDTIMRVLTTAGSYVRDDAVPNLIQLITNSVEMHAYTVQRLYKAILGDYSQQPLVQVAAWCIGEYGDLLVSGQCEEEEPIQVTEDEVLDILESVLISNMSTSVTRGYALTAIMKLSTRFTCTVNRIKKVVSIYGSSIDVELQQRAVEYNALFKKYDHMRSALLERMPVMEKVTTNGPSEIVQTNGETEPAPLETKPPPSGPQPTSQANDLLDLLGGNDITPVIPTAPTSKPASAGGELLDLLGDITLTGAPAAAPTPASVPQISQPPFLLDGLSSQPLFNDIAPGIPSITAYSKNGLKIEFTFERSNTNPSVTVITIQASNSTELDMTDFVFQAAVPKTFQLQLLSPSSSVVPAFNTGTITQVIKVLNPQKQQLRMRIKLTYNHKGSAMQDLAEVNNFPPQSWQ
partner: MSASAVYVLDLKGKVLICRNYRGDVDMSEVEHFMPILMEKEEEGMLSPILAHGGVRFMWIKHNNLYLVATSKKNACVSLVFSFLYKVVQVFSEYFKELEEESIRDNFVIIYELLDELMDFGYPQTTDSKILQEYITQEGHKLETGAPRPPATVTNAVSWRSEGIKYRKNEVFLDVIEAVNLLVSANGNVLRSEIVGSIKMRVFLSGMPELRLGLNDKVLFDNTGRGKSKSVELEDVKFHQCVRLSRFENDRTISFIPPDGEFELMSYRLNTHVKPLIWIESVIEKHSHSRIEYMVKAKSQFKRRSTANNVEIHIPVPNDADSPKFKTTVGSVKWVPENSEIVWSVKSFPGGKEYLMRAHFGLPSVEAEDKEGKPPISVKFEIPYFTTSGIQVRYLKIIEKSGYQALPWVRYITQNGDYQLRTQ

This note sets out measurements from IntAct's records for PubMed 23415225.

The first experiment covers variants of B1. As to conditions: with ap1g1_human AP1G1, O43747.
Take I85D;V88D: the “effect of a mutation on the interaction” value was “disrupting interaction strength”.

The variants in the next experiment derive from B2. As to conditions: with ap1m1_mouse Ap1m1, P35585.
For L68D;L71E;L102E, the “effect of a mutation on the interaction” value is given as “disrupting interaction strength”.
